These results are taken from PMC4666417.

The test deals with eEF1A1 (eukaryotic elongation factor 1 subunit A1), MYC/DDK-tagged (human) (UniProt P68104). Put plainly: BLI; biotinylated eEF1 subunit (eEF1A1, eEF1B, eEF1D or eEF1G) immobilised on streptavidin biosensor; RT subunits, RT heterodimer, Gag or RTp66 mutants as analytes at 90, 30 and 10 nM (mutants at 90 nM); kinetic buffer 1 mM phosphate, 15 mM NaCl, 0.002% Tween-20, 0.1 mg/ml gelatine, 1000 rpm, OctetRed.

As usually defined, the Kd is a measure of binding affinity in units of concentration. As a reminder, the koff is the first-order rate constant of dissociation. Low values mean slow dissociation, high ones fast dissociation. One may read the kon as a measure of how fast the partners come together. A low value points to slower complex formation.

Chain of eEF1A1 (eukaryotic elongation factor 1 subunit A1), MYC/DDK-tagged (human) (P68104 whole entry): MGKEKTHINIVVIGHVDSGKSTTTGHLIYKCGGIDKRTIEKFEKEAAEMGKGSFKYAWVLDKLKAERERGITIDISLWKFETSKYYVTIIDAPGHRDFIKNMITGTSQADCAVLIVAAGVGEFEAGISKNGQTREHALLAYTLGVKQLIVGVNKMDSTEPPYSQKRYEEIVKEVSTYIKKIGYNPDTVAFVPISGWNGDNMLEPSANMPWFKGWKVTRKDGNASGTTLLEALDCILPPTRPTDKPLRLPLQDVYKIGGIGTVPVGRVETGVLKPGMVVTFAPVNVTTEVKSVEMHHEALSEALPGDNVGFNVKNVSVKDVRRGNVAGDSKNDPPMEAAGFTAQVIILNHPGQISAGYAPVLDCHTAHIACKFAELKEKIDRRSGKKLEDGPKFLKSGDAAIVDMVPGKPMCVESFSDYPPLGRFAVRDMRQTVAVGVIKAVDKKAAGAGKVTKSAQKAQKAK

“HIV-1 RT p66/p51 heterodimer, purified (from UniProt P04585 588-1147; P04585 588-1027) (complex)”: the Kd was 3.75 nM, the off-rate constant (koff) was 0.000207 s⁻¹ and the kon came out at 55200 M⁻¹ s⁻¹.
The substance “HIV-1 RT p51, 6xHis-tagged, purified (from UniProt P04585 588-1027) (natural protein; other documents disagree on this pair)” yielded a Kd of 4.13 nM, a koff of 0.000185 s⁻¹ and a kon of 44800 M⁻¹ s⁻¹.
